Data reported in the supplement of paper PMC10899765.

Tests used:
Conditions in all cases: 20 nM; 72 h
MCF10A [1] = assay: one-nucleolus phenotype percent effect (relative to siNT 0% and siNOL11 100%); higher = more cells with one nucleolus (ribosome biogenesis inhibition)
Method: (§1)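 After 72 h, cells were fixed and stained with Hoechst and anti-fibrillarin, and nucleoli per nucleus were counted with CellProfiler. Values are plate-adjusted percent effect for the one-nucleolus and 5+ nucleoli phenotypes, normalised to siNT (0%) and to the positive controls siNOL11 or siKIF11 (100%), as the mean of biological triplicates. Percent viability is the nuclei count relative to siNT.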

MCF10A [2] = assay: 5+ nucleoli phenotype percent effect (relative to siNT 0% and siKIF11 100%); higher = more cells with five or more nucleoli
Method: as §1

MCF10A [3] = assay: percent viability (nuclei count relative to siNT); higher = more viable cells
Method: as §1

| Sequence | one-nucleolus phenotype percent effect (MCF10A [1]) [%] | 5+ nucleoli phenotype percent effect (MCF10A [2]) [%] | percent viability (MCF10A [3]) [%] |
| --- | --- | --- | --- |
| CAGUGAUUUGAGGAUUAUUGC [hsa-miR-8062] | 7.28 | -26.5 | 63.9 |
| CAGUGCAAGUGUAGAUGCCGA [hsa-miR-3666] | -18.2 | 66.7 | 150 |
| CAGUGCAAUAGUAUUGUCAAAGC [hsa-miR-301a-3p] | -17.2 | 43.8 | 126 |
| CAGUGCAAUGAUAUUGUCAAAGC [hsa-miR-301b] | -11.1 | 45.2 | 95.6 |
| CAGUGCAAUGAUGAAAGGGCAU [hsa-miR-130b-3p] | -14.8 | 59.9 | 77 |
| CAGUGCAAUGUUAAAAGGGCAU [hsa-miR-130a-3p] | -19.9 | 49.2 | 120 |
| CAGUGCAAUGUUUUCCUU [hsa-miR-4295] | -33 | 97.9 | 78.5 |
| CAGUGCCUCGGCAGUGCAGCCC [hsa-miR-33b-3p] | -17.8 | 24.5 | 107 |
| CAGUGGCCAGAGCCCUGCAGUG [hsa-miR-3677-5p] | 16.6 | -20.3 | 28.6 |
| CAGUGGUUUUACCCUAUGGUAG [hsa-miR-140-5p] | 20.1 | -31.4 | 61.4 |
| CAGUGUUCAGAGAUGGA [hsa-miR-4255] | -51.8 | 68.6 | 148 |
| CAGUUAUCACAGUGCUGAUGCU [hsa-miR-101-5p] | 8.44 | -23.5 | 33.9 |
| CAGUUCAGAAGUGUUCCUGAGU [hsa-miR-5000-5p] | -9.77 | -19.1 | 32.3 |
| CAGUUCUGCUGUUCUGACUCUAG [hsa-miR-6874-3p] | -4.11 | -30.6 | 28.9 |
| CAGUUGGGUCUAGGGGUCAGGA [hsa-miR-4259] | 31.8 | -30.7 | 16 |
| CAUAAAGUAGAAAGCACUACU [hsa-miR-142-5p] | -15.5 | 15 | 82.4 |
| CAUACAAUCUGACAUGUAUUU [hsa-miR-4666a-3p] | -4.04 | 15.8 | 66.1 |
| CAUAGCCCGGUCGCUGGUACAUGA [hsa-miR-3651] | 17.1 | -7.1 | 70 |
| CAUCAGAAUUCAUGGAGGCUAG [hsa-miR-2115-3p] | 15.3 | -5.23 | 39 |
| CAUCAGCACCCUAUGUCCUUUCU [hsa-miR-3617-3p] | 29.5 | -20.3 | 20 |

| Sequence | one-nucleolus phenotype percent effect (MCF10A [1]) [%] | 5+ nucleoli phenotype percent effect (MCF10A [2]) [%] | percent viability (MCF10A [3]) [%] |
| --- | --- | --- | --- |
| CAUCAUCGUCUCAAAUGAGUCU [hsa-miR-136-3p] | -9.83 | 22.1 | 37.4 |
| CAUCCCUUGCAUGGUGGAGGG [hsa-miR-188-5p] | -13.1 | 45.6 | 98.4 |
| CAUCCGUCCGUCUGUCCAC [hsa-miR-4800-3p] | -2.39 | -3.64 | 67.4 |
| CAUCUCUAAGGAACUCCCCCAA [hsa-miR-3675-3p] | 10.4 | 8.48 | 62 |
| CAUCUGGGCAACUGACUGAAC [hsa-miR-1298-3p] | 57 | -17.1 | 7.06 |
| CAUCUUACCGGACAGUGCUGGA [hsa-miR-200a-5p] | 5.98 | -26 | 56 |
| CAUCUUACUGGGCAGCAUUGGA [hsa-miR-200b-5p] | -11.1 | 0.989 | 73.7 |
| CAUCUUCCAGUACAGUGUUGGA [hsa-miR-141-5p] | -9.13 | -4.79 | 64.8 |
| CAUGACGUCACAGAGGCUUCGC [hsa-miR-4757-3p] | -14.4 | 36.1 | 61.2 |
| CAUGCCUUGAGUGUAGGACCGU [hsa-miR-532-5p] | 19.3 | -20.1 | 19.5 |
| CAUGCUAGGAUAGAAAGAAUGG [hsa-miR-3146] | 15.7 | -22.8 | 30.5 |
| CAUGCUGACCUCCCUCCUGCCCCAG [hsa-miR-4728-3p] | -12.7 | 20.8 | 69.7 |
| CAUGGGAGUUCGGGGUGGUUGC [hsa-miR-6871-5p] | 14.1 | 5.7 | 25.6 |
| CAUGGGGUAGGGCAGAGUAGG [hsa-miR-6890-5p] | 21.6 | -15.7 | 43.6 |
| CAUGGUUCUGUCAAGCACCGCG [hsa-miR-218-2-3p] | 12.5 | 7.58 | 68 |
| CAUUACAGCACAGCCAUUCU [hsa-miR-6504-3p] | 2.85 | -25.6 | 47.5 |
| CAUUAUUACUUUUGGUACGCG [hsa-miR-126-5p] | -14.9 | 12.5 | 88.9 |
| CAUUCAACUAGUGAUUGU [hsa-miR-4272] | -23.4 | 33.7 | 170 |
| CAUUGCACUUGUCUCGGUCUGA [hsa-miR-25-3p] | 3.94 | -21.1 | 96.4 |
| CCAAAACUGCAGUUACUUUUGC [hsa-miR-548o-3p] | -18 | 27.5 | 99.8 |

| Sequence | one-nucleolus phenotype percent effect (MCF10A [1]) [%] | 5+ nucleoli phenotype percent effect (MCF10A [2]) [%] | percent viability (MCF10A [3]) [%] |
| --- | --- | --- | --- |
| CCAAACCAGUCGUGCCUGUGG [hsa-miR-6715a-3p] | 24.3 | -42 | 40.8 |
| CCAAAUCUUGAUCAGAAGCCU [hsa-miR-4762-5p] | -8.43 | 26.6 | 106 |
| CCAACCUAGGUGGUCAGAGUUG [hsa-miR-4714-3p] | -11.1 | 42 | 98.3 |
| CCAAGGAAGGAGGCUGGACAUC [hsa-miR-6830-5p] | 13.3 | -10.3 | 47.1 |
| CCAAUAUUACUGUGCUGCUUUA [hsa-miR-16-2-3p] | -17.8 | 40.6 | 121 |
| CCAAUAUUGGCUGUGCUGCUCC [hsa-miR-195-3p] | -16.1 | 27.5 | 142 |
| CCAAUUACCACUUCUUU [hsa-miR-4275] | -17.6 | 23.8 | 74.6 |
| CCACCAGGUCUAGCAUUGGGAU [hsa-miR-4733-3p] | 12.6 | -9.32 | 29.8 |
| CCACCGGGGGAUGAAUGUCAC [hsa-miR-181d-3p] | 24.4 | -15.9 | 40.6 |
| CCACCUCCCCUGCAAACGUCCA [hsa-miR-1306-5p] | -25.8 | 33 | 35 |
| CCACGUGCUUCUCUUUCCGCAG [hsa-miR-6767-3p] | 13.2 | -26 | 69 |
| CCACUGCCUAUGCCCCACAG [hsa-miR-6890-3p] | -16.6 | -13.4 | 62.1 |
| CCACUUGGAUCUGAAGGCUGCCC [hsa-miR-3614-5p] | 36.9 | -32.4 | 32.9 |
| CCAGACAGAAUUCUAUGCACUUUC [hsa-miR-1324] | -11 | 49.8 | 120 |
| CCAGACUGUGGCUGACCAGAGG [hsa-miR-4494] | -29.5 | 52.3 | 96.4 |
| CCAGAGAUGGUUGCCUUCCUAU [hsa-miR-4756-3p] | -3.67 | 4.75 | 56.8 |
| CCAGAGCAGCCUGCGGUAACAGU [hsa-miR-6501-3p] | 1.17 | -17.2 | 35.1 |
| CCAGAGGUGGGGACUGAG [hsa-miR-4257] | 22.3 | 1.69 | 24.6 |
| CCAGCCACGGACUGAGAGUGCAU [hsa-miR-4691-3p] | -11.4 | 26.3 | 51.4 |
